From patent publication US20250382588A1, “CHIMERIC AAV AND USES THEREOF” (priority 2023, published 2025)
Changes are numbered by the printed parent chain. Names may count otherwise.

B1: AAV8R4: AAV8R capsid mutant R490Q, SEQ ID NO: 5 (protein)
chain: MAADGYLPDWLEDNLSEGIREWWALKPGAPKPKANQQKQDDGRGLVLPGYKYLGPFNGLDKGEPVNAADAAALEHDKAYDQQLQAGDNPYLRYNHADAEFQERLQEDTSFGGNLGRAVFQAKKRVLEPLGLVEEGAKTAPGKKRPVEPSPQRSPDSSTGIGKKGQQPARKRLNFGQTGDSESVPDPQPLGEPPAAPSGVGPNTMAAGGGAPMADNNEGADGVGSSSGNWHCDSTWLGDRVITTSTRTWALPTYNNHLYKQISNGTSGGATNDNTYFGYSTPWGYFDFNRFHCHFSPRDWQRLINNNWGFRPKRLSFKLFNIQVKEVTQNEGTKTIANNLTSTIQVFTDSEYQLPYVLGSAHQGCLPPFPADVFMIPQYGYLTLNDGSQAVGRSSFYCLEYFPSQMLRTGNNFQFTYTFEDVPFHSSYAHSQSLDRLMNPLIDQYLYYLSRTQTTGGTANTQTLGFSQGGPNTMANQAKNWLPGPCYRQQQVSTTTGQNNNSNFAWTAGTKYHLNGRNSLANPGIAMATHKDDEERFFPSNGILIFGKQNAARDNADYSDVMLTSEEEIKTTNPVATEEYGIVADNLQRGNLADQDYTKTARQAATADVNSQGALPGMVWQNRDVYLQGPIWAKIPHTDGNFHPSPLMGGFGLKHPPPQILIKNTPVPADPPTTFNQSKLNSFITQYSTGQVSVEIEWELQKENSKRWNPEIQYTSNYYKSINVDFAVNTEGVYSEPRPIGTRYLTRNL
B2: AAV8R9: AAV8R capsid mutant V125I + F536Y, SEQ ID NO: 10 (protein)
chain: B1 chain with V125I, Q490R, F536Y
B3: AAV8R14: AAV8R capsid mutant V125I + A606S + T495A, SEQ ID NO: 15 (protein)
chain: B1 chain with V125I, Q490R, T495A, A606S
B4: AAV8R1: AAV8R capsid mutant V183E, SEQ ID NO: 2 (protein)
chain: B1 chain with V183E, Q490R
B5: AAV8R2: AAV8R capsid mutant N411S, SEQ ID NO: 3 (protein)
chain: B1 chain with N411S, Q490R
B6: AAV8R10: AAV8R capsid mutant V125I + A606S, SEQ ID NO: 11 (protein)
chain: B1 chain with V125I, Q490R, A606S
B7: AAV8R11: AAV8R capsid mutant V125I + T495A, SEQ ID NO: 12 (protein)
chain: B1 chain with V125I, Q490R, T495A
B8: AAV8R3: AAV8R capsid mutant Y447F, SEQ ID NO: 4 (protein)
chain: B1 chain with Y447F, Q490R
B9: AAV8R5: AAV8R capsid mutant V125I, SEQ ID NO: 6 (protein)
chain: B1 chain with V125I, Q490R
B10: AAV8R8: AAV8R capsid mutant T495A, SEQ ID NO: 9 (protein)
chain: B1 chain with Q490R, T495A
B11: AAV8R13: AAV8R capsid mutant V125I + F536Y + T495A, SEQ ID NO: 14 (protein)
chain: B1 chain with V125I, Q490R, T495A, F536Y
B12: AAV8R7: AAV8R capsid mutant A606S, SEQ ID NO: 8 (protein)
chain: B1 chain with Q490R, A606S
B13: AAV8R6: AAV8R capsid mutant F536Y, SEQ ID NO: 7 (protein)
chain: B1 chain with Q490R, F536Y

Assays:
Type in all cases: in vivo, mice
[1] = test system: MSNs in the striatum (STR); experiment: Promoter activity driving EYFP reporter expression after AAV injection into the SNr: striatum; details: numbers of YFP-expressing neurons per animal
Description: (§1) Brain profiles of two epigenetic marks for enhancers and promoters, monomethylation of histone H3 lysine 4 (H3K4me1) and acetylation of histone H3 lysine 27 (H3K27ac) were checked and approximately 2 kilobase-long sequences around the transcriptional start site (TSS) that have high levels of H3K4me1 and/or H3K27ac were identified in mouse brain. Homologous sequences at equivalent positions of the human genome were then cloned onto an AAV backbone, and the activity of the homologous sequences in directing reporter expression was tested in mice after injections of AAVs into the SNr (FIG. 3A-C, TABLE 3).
G88P2 (2259 bp) was cloned with the following primers: 5′-[…] (SEQ ID NO.: 36) and 3-[…] (SEQ ID NO.: 37). To increase the payload of AAV genome, the G88P2 promoter was shorted using restriction enzymes, and two derivatives, G88P3 and G88P7, were made which were 1395-bp and 896-bp long, respectively (FIG. 3A-3C). Comparative efficiency in labeling MSNs for the two shortened promoters was observed. For mice that received viral injections into the SNr, viruses expressing EYFP driven by G88P3 and G88P7 promoters labeled 3.7±0.66×104 and 3.95±0.73×104 MSNs per mouse, respectively, compared to 1.61±0.16×104 labeled MSNs by hSyn promoter (FIG. 4B).
(§2) Region-selective promoter identification was based on the Allen Brain Atlas in situ hybridization (ISH) data (mouse.brain-map.org/). Genes highly expressed in the striatum but not in other parts of the basal ganglia were first selected as candidates. H3K4me1 and H3K27ac are known epigenetic marks for active promoters and enhancers. Thus, we identified regions with high levels of these two chromatin modification marks in mouse brain as candidate regions based on the ENCODE annotation data on the UCSC Genome Browser (genome.ucsc.edu/). To further extend the promoters' potential application in primates, the sequences of interest were PCR-amplified from human genomic DNA. Based on the above strategies, GPR88 was selected as a candidate gene. The nucleotide sequence upstream of the start codon with high H3K4me1 and H3K27ac levels was selected as the candidate promoter sequence. G88P2 (2259 bp) was cloned with the following primers: 5′-[…]-3′ (SEQ ID NO: 36), 5′-[…]-3′ (SEQ ID NO: 58). G88P3 (1395 bp) and G88P7 (896 bp) were further shortened by subcloning.
Promoters were subcloned into a pAAV-hSyn-EYFP vector derived from pAAV-hSyn-EGFP (Addgene, 50465) to replace the hSyn promoter by using appropriate restriction enzyme combinations. To generate pAAV-G88P7-DIO-tdTomato, a DIO-tdTomato cassette was subcloned into pAAV-G88P7-EYFP to replace EYFP by restriction enzyme digestion. To generate pAAV-G88P3-HA-hM3Dq, promoter G88P3 was subcloned into pAAV-hSyn-HA-hM3Dq-IRES-mCitrine (Addgene, 50463) via the EcoRI/BamHI restriction sites to replace the hSyn promoter and IRES-mCitrine was removed afterwards by restriction enzyme digestion. To generate pAAV-G88P3-HA-hM3Dq-2A-EYFP, a 2A-EYFP fragment was subcloned into pAAV-G88P3-HA-hM3Dq after hM3Dq. […]
Images were acquired using a confocal microscope (Carl Zeiss, LSM880) and an Axiolmager.Z1 microscope with apotome (Carl Zeiss). […] Every sixth section was analyzed, and numbers of EYFP+ cells were multiplied by six to acquire the approximate total number and mean number of cells per animal. […]

substantia nigra (SN) = experiment: Promoter activity driving EYFP reporter expression after AAV injection into the SNr: substantia nigra; details: numbers of YFP-expressing neurons per animal
Description: as §1
as §2, with “subcloning. […]” for “subcloning.”
Images were acquired using a confocal microscope (Carl Zeiss, LSM880) and an Axiolmager.Z1 microscope with apotome (Carl Zeiss). […] Every sixth section was analyzed, and numbers of EYFP+ cells were multiplied by six to acquire the approximate total number and mean number of cells per animal. Images were processed using ImageJ (NIH, USA), and final quantifications were independently performed manually by two blinded experimenters.

[2] = test system: striatal D1 MSNs (striatonigral projection neurons); experiment: Retrograde labeling of striatonigral projection neurons after AAV injection into the SNr; details: AAV8R capsid mutants; numbers of labeled neurons per animal
Protocol: To improve efficiency, multiple rounds of mutations of AAV capsids were performed on a series of different serotypes. Mutations were introduced at three sites in the AAV8 capsid protein to make AAV8R, including N385D, insertion of […] (SEQ ID NO: 31) at position 588, and TS711-712IN. Two additional mutations of V183E and N411S were incorporated into the AAV8R12 capsid protein (FIG. 1A). The labeling pattern of the AAV8R12 capsid and G88 promoter combination was determined.
First, the polypeptide fragment RGNLADODYTKTARQAATAD (SEQ ID NO.: 31) was inserted at the N587-R588 position; two other point mutations of the AAV2 Cap protein were made to develop rAAV2-retro. Similar mutations were then placed at equivalent positions for four other AAV serotypes (FIGS. 1A-IC and 25, TABLE 1), AAV1/5/6/8 (FIG. 1A). […] When administered into the SNr, 4.86±0.22 times EYFP positive MSNs in mice infected by AAV8R-hSyn-EYFP were observed as compared to those infected by rAAV2-retro-hSyn-EYFP (FIG. 2A-2C).
Baseline infectivity of rAAV2-retro was approximately 0.2±0.03×10^4 cells per striatal hemisphere (using a hSyn promoter) (TABLE 2). […] Compared to the current standard retrograde AAV, rAAV2-retro, AAV8R12 labeled 7.72±0.78-times more MSNs after nigral delivery (FIG. 2B-2C, TABLE 1). […] The AAV8R12 was generated using the AAV8R plasmid as a template.
Mice were anesthetized with sodium pentobarbital (Nembutal; 80 mg/kg, i.p.), and then placed into a stereotaxic device (KOPF). Eye cream was applied on both corneas to avoid dehydration. The skull above the targeted areas was thinned with a dental drill and carefully removed. Injections were conducted with a 10 μL syringe connected to a 33-Gauge needle (Neuros; Hamilton), using a microsyringe pump (Legato 130, KD Scientific). A total volume of 200 nL virus was injected into the SNr at a speed of 20 nL/min. The coordinates for the SNr were 3.4 mm posterior, 1.3 mm lateral, 4.8 mm ventral to the bregma.
HEK293T cells (ATCC) were co-transfected by calcium phosphate with an AAV vector plasmid, an AAV Rep-Cap plasmid (rAAV2-retro, AAV1R, AAV5R, AAV6R, AAV8R, and AAV8R1-14), and the pAdDeltaF6 helper plasmid (Addgene, 112867) harboring the adenoviral genes required for the AAV life cycle. HEK293T cells grown in 15 cm cell culture dishes were co-transfected with the mixture of three plasmids (1:1:1) at 80% confluency. 48-72 hours post-transfection, cells were collected and resuspended in a buffer containing 150 mM NaCl and 100 mM Tris-HCl (pH 8.0). Cells were lysed by repeated freeze-thaw cycles in liquid nitrogen and a 37° C. water bath. AAV particles were purified and concentrated using Millipore Amicon 100K columns (Merck Millipore, UFC910008). Encapsidated viral DNA was quantitated by qPCR (Thermo Fisher) with primers recognizing the viral WPRE and/or ITR sequences following denaturation of the AAV particles using Proteinase K. Titers were calculated as genome copies per milliliter.
Images were acquired using a confocal microscope (Carl Zeiss, LSM880) and an Axiolmager.Z1 microscope with apotome (Carl Zeiss). Brain structures were identified microscopically and in digital photos using a mouse brain atlas. To analyze the number of EYFP+ cells in the striatum, slices from rostral to caudal striatum were used. Every sixth section was analyzed, and numbers of EYFP+ cells were multiplied by six to acquire the approximate total number and mean number of cells per animal. Images were processed using ImageJ (NIH, USA), and final quantifications were independently performed manually by two blinded experimenters.

Molecule	Activity Level STR [1]	Activity Level SN (substantia nigra (SN))	Labeling Efficiency in Striatonigral Pathway [2]
G88P2: 2259-bp promoter from the gene GPR88, SEQ ID NO: 59	++++ (>25 k)	+ (<5 k)	–
B1	–	–	+ (<5 k)
B2	–	–	+ (<5 k)
B3	–	–	++ (5 k-10 k)
B4	–	–	+ (<5 k)
B5	–	–	+ (<5 k)
B6	–	–	+ (<5 k)
B7	–	–	+ (<5 k)
B8	–	–	+ (<5 k)
B9	–	–	+ (<5 k)
B10	–	–	+ (<5 k)
B11	–	–	++ (5 k-10 k)
B12	–	–	+ (<5 k)
B13	–	–	+ (<5 k)
